Molecular target: T1, human serum albumin (Homo sapiens, UniProt P02768)
T1 construct: purchased Aventis, Bridgewater, N.J. Albuminar
Assay: Serum albumin binding by surface plasmon resonance (BIACORE 3000)
Conditions: SPR, immobilized serum albumin, 25° C., Req divided by molecular weight; for reduction of human serum albumin binding of the Fc chimeric protein compared to the unmodified molecule: unmodified molecule bound this many times as much
Method: Analysis of macromolecular interactions was performed using surface plasmon resonance as previously described (Frostell-Karlsson et al. 2000, J. Med. Chem. 43:1986). A BIACORE 3000 instrument (Biacore AB, Piscataway, N.J.) was used and all binding interactions were performed at 25° C. A carboxymethyl-modified dextran (CM5) sensor chip (Biacore AB, Piscataway, N.J.) was used for the analysis. Serum albumin (Albuminar, Aventis, Bridgewater, N.J.) was diluted to 100 μg/mL in 10 mM sodium acetate (pH 4.5) and immobilized to one flowcell of the sensor chip, using amine coupling as described (Frostell-Karlsson et al. 2000, J. Med. Chem. 43:1986). Final immobilization level was approximately 8500 Resonance Units (RU). A “mock-immobilized” surface using a separate flowcell was created using the same procedure in the absence of serum albumin and served as a reference for the binding studies.
Proteins or peptides (analyte) were diluted in HBS-N buffer (10 mM HEPES, pH 7.4; 150 mM NaCl) and injected over the serum albumin and reference surfaces for 3 minutes at a rate of 20 μL/min. After a 35 second dissociation phase, the surface was regenerated by a 30 second pulse of 10 mM glycine (pH 2.0) at a flow rate of 60 μL/min.
The sensorgrams (RU versus time) generated for the mock-coated flowcell were automatically subtracted from the serum albumin-coated sensorgrams. Response at equilibrium (Req) was measured 30 seconds before the end of the injection phase and divided by the molecular weight of the analyte, total response as is in part, a function of molecular weight. (Frostell-Karlsson et al. 2000, J. Med. Chem. 43:1986). Samples tested included T20 linked to Fc (i.e. T20-Fc produced in CHO cells and Fc-T20 produced in E. coli), a VLA4 antagonist linked to Fc, a GnRH peptide linked to Fc, PspA, a bacterial peptide fragment of S. pneumonia surface protein A, peptide YY a peptide involved in regulation of nutrient uptake and an Fc fragment of an immunoglobulin beginning with Cys 226 served as negative controls.

Substance | reduction of human serum albumin binding of the Fc chimeric protein compared to the unmodified molecule | human serum albumin binding of the unmodified molecule compared to the same molecule linked to Fc (ratio unmodified molecule / Fc chimeric protein)
Fc-T20: T20 linked to Fc, produced in E. coli | more than three | –
T20-Fc: T20 linked to Fc, produced in CHO cells | more than three | –
T20: HIV fusion inhibitor, a small peptide, fragment of gp41 (SEQ ID NO: 1) [reference compound] | – | more than three

— patent US20050037947A1, “INHIBITION OF DRUG BINDING TO SERUM ALBUMIN” (priority 2003, published 2005)
